According to publication PMC9459147, “Targeting the Cbl-b-Notch1 axis as a novel immunotherapeutic strategy to boost CD8+ T-cell responses” (Frontiers in Immunology, 2022):

Biological target: T1, UBE2D2(C85K)-Ub-FL-BODIPY (human | , UniProt P62837 1-147; P0CG48 1-76, C85K, ubiquitinated in vitro; BODIPY labelled in vitro (position not given))
T1 construct: UBE2D2 ubiquitin-conjugating enzyme, human, with C85K; ubiquitin, conjugated in vitro to UBE2D2(C85K); also called UBE2D2(C85K), ubiquitinated and BODIPY labelled; source: E. coli, purified, ubiquitinated and BODIPY labelled in vitro
Assay: AlphaScreen or HTRF; TR-FRET: biotinylated Cbl-b (36-427) with Src-Zap-70 fusion and ATP (enzyme reaction), UBE2D2(C85K)-Ub-FL-BODIPY and Streptavidin-Tb (binding reaction); signal at 520 nm, reference at 620 nm; used to titrate small-molecule Cbl-b inhibitors (NTX-512, NTX-447, NTX-307)
Conditions: both partners purified

B1: recombinant human Cbl-b (aa 36-427), biotinylated (domain or fragment, UniProt Q13191 36-427, looked up)
chain: PKQAAADRRTVEKTWKLMDKVVRLCQNPKLQLKNSPPYILDILPDTYQHLRLILSKYDDNQKLAQLSENEYFKIYIDSLMKKSKRAIRLFKEGKERMYEEQSQDRRNLTKLSLIFSHMLAEIKAIFPNGQFQGDNFRITKADAAEFWRKFFGDKTIVPWKVFRQCLHEVHQISSGLEAMALKSTIDLTCNDYISVFEFDIFTRLFQPWGSILRNWNFLAVTHPGYMAFLTYDEVKARLQKYSTKPGSYIFRLSCTRLGQWAIGYVTGDGNILQTIPHNKPLFQALIDGSREGFYLYPDGRSYNPDLTGLCEPTPHDHIKVTQEQYELYCEMGSTFQLCKICAENDKDVKIEPCGHLMCTSCLTAWQESDGQGCPFCRCEIKGTEPIIVDPFD
modifications: biotinylated in vitro (position not given)
notes: Cbl-b, human, residues 36-427; In the assay it was mixed with a recombinant human Src (aa 254-536)-Zap-70 (aa 281-297) fusion protein and ATP ('enzyme reaction'); Detected through Streptavidin-Tb; also called Cbl-b enzyme; source: E. coli, purified and biotinylated in vitro
B1: binds.
